Measured values published in patent publication US20050169917A1.

B1: synthetic OFQ17 with K13C (peptide)
peptide: FGGFTGARKSARCLANQ
B2: synthetic OFQ17 with R8K (peptide)
peptide: FGGFTGAKKSARKLANQ
B3: OFQ11 (peptide)
peptide: FGGFTGARKSA

Target: Orphanin FQ receptor, normal (NT), expressed in Cos-7 cells (UniProt P35370)
Test: inhibition of [125I] Y14-OFQ17 binding, Cos-7 cells transfected with OFQR

Binder | IC50 [nM]
B1 | 0.1
B2 | 0.1
B3 | 5000
